Results published in the supplement of paper PMC10567573.
± gives the standard deviation.

Experiment: protein stability index of a GFP-peptide fusion (GPS, HEK-293T) (PSI 1-6); higher = more stable
Details: c terminus: a fixed tail appended
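Further: 24-mer peptide tiles fused after GFP, lentivirally expressed, FACS-sorted into six equal bins by GFP/DsRed ratio, decoded by Illumina sequencing, PSI is the read-weighted mean bin number.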

Row | Sequence | protein stability index (treatment: DMSO) | protein stability index (treatment: MLN4924 1 uM, 8 h)
1 | EQALGKGCGADSKKKRPPQPPEES [PLK2] | 5.24 ± 0.41 | 5.36 ± 0.2
2 | LPACTLCAGPLEDAVTIPCGHTFC [TRIM15] | 3.818 ± 0.022 | 4.16 ± 0.35
3 | FSEALAEGAVKMGMPSSLAHRIAA [PYCR3] | 3.12 ± 0.42 | 3.06 ± 0.52
4 | QRAWVRALNEQACRNGSSIQIAFE [C2CD2L] | 2.46 ± 0.34 | 2.69 ± 0.16
5 | RQMAFDFARVKKGADGVMRTMAPE [SNAP91] | 3.47 ± 0.38 | 3.43 ± 0.16
6 | RRCGKCFCDRCCSQKVPLRRMCFV [ZFYVE21] | 2.31 ± 0.45 | 2.31 ± 0.39
7 | AIGGTYLGPAFRGLKGRTLYPAVS [SPSB2] | 2.51 ± 0.16 | 2.69 ± 0.19
8 | SRRVIAANNRILAERIAKEIQVIP [IMPA1] | 2.46 ± 0.34 | 2.69 ± 0.12
9 | PHWLDKWMLTRKQFGLLSFFFAVL [STEAP1] | 2.27 ± 0.28 | 2.26 ± 0.38
10 | LVKKYGTKQWTLIAKHLKGRLGKQ [MYBL2] | 2.43 ± 0.89 | 2.45 ± 0.53
11 | RQVALGAMEAVRVNPLHVDSTWLL [SLC25A39] | 2.53 ± 0.27 | 2.52 ± 0.069
12 | MTGRVCRGCGGTDIELDAARGDAV [BRF1] | 3.65 ± 0.12 | 3.77 ± 0.18
13 | ENRRKVLYQRAPRNIHRHVILSEI [TCF25] | 2.62 ± 0.073 | 2.75 ± 0.31
14 | SFRRNVGRVLLANSTQADEGKTKK [FBXO34] | 4.71 ± 0.46 | 4.85 ± 0.35
15 | DVIIEVNGVNVLDEPYEKVVDRIQ [PDZK1] | 3.73 ± 0.32 | 3.81 ± 0.97
16 | VQGPGVVGEFPIISPGRVYEYTSC [FBXO3] | 2.72 ± 0.52 | 3 ± 0.32
17 | ERAKMSSSEVGPFVSKIRAVINDI [AUH] | 2.76 ± 0.14 | 2.86 ± 0.31
18 | LASYLEKVRALEEANADLEVKIRD [KRT13] | 3.52 ± 0.22 | 3.56 ± 0.26
19 | RLSRRMASQHSYPLNRFSSVPLDP [CBY2] | 3.22 ± 0.27 | 3.45 ± 0.22
20 | LPKPPGTPVVTESTATSITLTWDS [PTPRD] | 3.88 ± 0.087 | 3.88 ± 0.18
21 | RRRRIIINVGGIKYSLPWTTLDEF [KCNG1] | 2.48 ± 0.44 | 2.46 ± 0.59
22 | AYPLELQGQPDPAPRPGPPAGTPP [MOSPD3] | 5.14 ± 0.23 | 5.01 ± 0.14
23 | RLLGSARPELGAALGIYGAPYAAA [IRX6] | 2.27 ± 0.42 | 2.44 ± 0.47

Row | Sequence | protein stability index (treatment: DMSO) | protein stability index (treatment: MLN4924 1 uM, 8 h)
24 | GGYLTELEDGFYLTAFICFLVFIL [MFSD9] | 1.98 ± 0.22 | 2.14 ± 0.34
25 | PGRSSVASPRRLSNVSSSGSINLL [MAP2] | 3.63 ± 0.16 | 3.48 ± 0.16
26 | AWLNYPCFKNWDGSPVSSWILLAE [OAS1] | 2.58 ± 0.34 | 2.3 ± 0.23
27 | VRAHQDTQRRTSMGGTQQQFVEGV [CTNNB1] | 4.232 ± 0.018 | 4.24 ± 0.14
28 | ELQRTKQEVLSLRRENSTLDVECH [SASS6] | 4.02 ± 0.33 | 3.93 ± 0.2
29 | TVGTPDYIAPEVFMQTGYNKLCDW [STK38L] | 2.82 ± 0.16 | 2.97 ± 0.37
30 | KQQENATSCSLELIGDLIGHSSSV [WDR41] | 3.02 ± 0.37 | 3.17 ± 0.11
31 | FYGHSHHSHHGHPSHQSHSLPNRR [C10orf62] | 3.99 ± 0.29 | 4.21 ± 0.21
32 | LPDELGSQLPQVLHVSLGQKLVAA [MOSPD3] | 3 ± 0.34 | 3.14 ± 0.089
33 | SSPQGVQLDIASQSLDQEILLKVK [BCL2L13] | 3.58 ± 0.4 | 3.83 ± 0.1
34 | KLREKERKKEAKRKISSLSFTLEE [FAM50A] | 4.29 ± 0.3 | 4.53 ± 0.34
35 | NDTDFRVYLLGNPVVWWLNLLSIA [POMT2] | 2.89 ± 0.48 | 3.11 ± 0.47
36 | SAEEVRFPVSVTQQSPAAVSMETY [C2CD2L] | 4.52 ± 0.33 | 4.71 ± 0.14
37 | MEESKAKFENLCKLMKEILDKKVE [HSP90AB1] | 3.34 ± 0.28 | 3.29 ± 0.19
38 | MYPESTTGSPARLSLRQTGSPGMI [KCNAB2] | 3.7 ± 0.51 | 4.1 ± 0.4
39 | QKGSHPMCKEHEDEKINIYCLTCE [TRIM63] | 4.64 ± 0.22 | 4.67 ± 0.17
40 | VKMLGSPVDSVLFYAITTLHNLLL [CTNNB1] | 2.47 ± 0.59 | 2.48 ± 0.6
41 | SQKVPLRRMCFVDPVRQCAECALV [ZFYVE21] | 2.21 ± 0.2 | 2.29 ± 0.23
42 | HTGEKPYKCLECGKAFSQNSGLIN [ZNF24] | 2.68 ± 0.19 | 2.88 ± 0.21
43 | KLKKGICEALEDSDGRQDSPAGEL [MATN2] | 5.3 ± 0.28 | 5.31 ± 0.15
44 | QDLCGVSTCDTLGMADVGTVCDPA [ADAMTS4] | 5.07 ± 0.25 | 5.25 ± 0.26
45 | LFQIDVYDFMNSAFSPIVILTERV [MIA2] | 2.75 ± 0.73 | 3.06 ± 0.91
46 | VVMNLDSRLLIFPLYICCNFLYIS [GMCL1] | 2.59 ± 0.59 | 2.94 ± 0.36

Row | Sequence | protein stability index (treatment: DMSO) | protein stability index (treatment: MLN4924 1 uM, 8 h)
47 | SDKYPIQDTELPKAEECDTITLNC [EDARADD] | 5.25 ± 0.41 | 5.26 ± 0.21
48 | VKFISNPPSMVAAGSVVAAVQGLN [CCND1] | 2.43 ± 0.62 | 2.42 ± 0.24
49 | YLAMLERFQDGDNILEKEVLPPIH [FEM1B] | 2.73 ± 0.19 | 2.93 ± 0.24
50 | VAAGEKSILTDNPTWIIDPIDGTT [IMPA1] | 3.92 ± 0.19 | 4.03 ± 0.2
51 | NPTSAPGSRLAEFGAAGVNRLSIG [RSAD1] | 3.87 ± 0.072 | 3.64 ± 0.28
52 | DYSPYYKTIEELRDKILTATIENN [KRT13] | 3.17 ± 0.15 | 3.11 ± 0.16
53 | KIESLMDEIEFLKKLHEEELRDLQ [PRPH] | 3.14 ± 0.23 | 3.61 ± 0.35
54 | SNEWKTVVGGAMFFIGFTALVIMW [COX4I1] | 3.09 ± 0.14 | 3.06 ± 0.27
55 | YHSQDELGGFSHWGRLTSYSGGGY [PKD2L1] | 2.66 ± 0.6 | 2.52 ± 0.34
56 | GILTLAMIAFFFIIIYLGPMVLMI [CDS2] | 2.7 ± 0.57 | 2.48 ± 0.35
57 | SETPQETYRKVMNWKETLVFPPEV [STK38L] | 3.61 ± 0.53 | 3.7 ± 0.3
58 | EGLRRRRGREAGPPQPMVPLAVEN [PBXIP1] | 5 ± 0.49 | 4.98 ± 0.23
59 | AGFSPDCIMDDAINILQNEKSHQV [INTS4] | 4.13 ± 0.12 | 4.17 ± 0.18
60 | SFSSLEPDNEQLMEEVISPRQVSY [IQUB] | 4.29 ± 0.2 | 4.56 ± 0.22
61 | SLRRRGASAAARLGCNRQSWCLKR [TRIM14] | 3.28 ± 0.28 | 3.16 ± 0.58
62 | EELYKEIDGVATTRYSVAGLSPYS [PTPRD] | 3.14 ± 0.18 | 3.36 ± 0.22
63 | KCLQLLGNLGSLEKSVTKDAEGLA [INTS4] | 2.82 ± 0.46 | 3.08 ± 0.099
64 | AAKARDTGILIFAIGVGQVDFNTL [MATN2] | 2.58 ± 1.1 | 3.16 ± 1
65 | EQQHYFNTPFQLSIAPPEAEGVVL [PPTC7] | 3.29 ± 0.38 | 3.56 ± 0.43
66 | SEVEELNMSLTALREKLLEAEQSL [TEKT4] | 3.52 ± 0.35 | 3.87 ± 0.2
67 | FGIVEIDGMLYILGGEDGEKELIS [GAN] | 2.35 ± 0.25 | 2.31 ± 0.29
68 | EESILERVQQHIESKLLGSNSSRM [MLH1] | 3.96 ± 0.15 | 3.92 ± 0.11
69 | FMRTDNTCVNLLLEASNYQMMPYM [KLHL13] | 2.46 ± 0.58 | 2.24 ± 0.36

Row | Sequence | protein stability index (treatment: DMSO) | protein stability index (treatment: MLN4924 1 uM, 8 h)
70 | WCSVAYWEHRTRVGRLYAVYDQAV [SMAD6] | 2.44 ± 0.43 | 2.18 ± 0.16
71 | DLIKHQRIHTEEKPYKCQQCDKRF [ZNF75A] | 2.99 ± 0.23 | 3.31 ± 0.16
72 | GGNKKSDGVKESSESTNTTIEDED [CAMK2A] | 5.7 ± 0.087 | 5.53 ± 0.26
73 | VRSQYPNQPTRFGKLLLRLPSLRT [NR2F2] | 2.42 ± 0.16 | 2.49 ± 0.23
74 | TYQVHDYLRSKLCSLYENDCIFDK [PPP2R2C] | 2.22 ± 0.26 | 2.32 ± 0.48
75 | RRGGGPVFPAPVVGSGGATSGKLL [ZBTB22] | 4.104 ± 0.027 | 4.33 ± 0.29
76 | PKGLDDESKDYLSLYLLLVSCPKS [SPOPL] | 2.34 ± 0.38 | 2.95 ± 0.69
77 | FFFAVLHAIYSLSYPMRRSYRYKL [STEAP1] | 2.31 ± 0.4 | 2.43 ± 0.53
78 | QETPGPREALTRLQELCYQWLRPH [ZSCAN9] | 2.54 ± 0.12 | 2.6 ± 0.17
79 | PNFVKDLEEDLYELFKKDPGFDRG [PI4K2A] | 3.79 ± 0.081 | 3.72 ± 0.32
80 | YLAHASDVLENAFAPLLDEQYDLA [GOLPH3] | 2.83 ± 0.21 | 3.12 ± 0.36
81 | LPPDVTTQSVMGFDPLPPSDTIYS [TCF25] | 4.19 ± 0.16 | 4.37 ± 0.34
82 | SDLSRRSSSTMSKSEYMEIEEDMN [KCNA1] | 5.21 ± 0.33 | 5.38 ± 0.1
83 | DLNGAQIKLREYEAALNSKDAALA [LMNB1] | 3.5 ± 0.18 | 3.71 ± 0.39
84 | LVAFVLLNECVGTAYWALAGSIGG [SLC22A15] | 3.05 ± 0.34 | 2.86 ± 0.38
85 | EQEKEAQHKDQTAALPLAAEETAN [MAP2] | 5.66 ± 0.12 | 5.5 ± 0.4
86 | LYLEEIADRIIEVDMECQTDAFLD [RSPH3] | 2.44 ± 0.74 | 2.59 ± 0.28
87 | HWPQGPTGPPGPPGPMGPPGPPGP [EMID1] | 4.66 ± 0.22 | 4.73 ± 0.45
88 | YTSQITVEEGNVQTLLPAACLLQL [KLHL20] | 2.28 ± 0.061 | 2.3 ± 0.25
89 | CPSSPKQIHLDVDNDRTTPSDLDS [DLC1] | 5.52 ± 0.1 | 5.55 ± 0.14
